These results are taken from doi:10.1101/2021.06.16.448340 (bioRxiv, 2021).

One may read the stoichiometry N as the number of molecules, sites or subunits per partner or assembly.

T1: CtaD with Strep-tag, subunit I homologue of complex IV (Corynebacterium glutamicum, UniProt Q79VD7 1-584)
T1 sequence (looked up): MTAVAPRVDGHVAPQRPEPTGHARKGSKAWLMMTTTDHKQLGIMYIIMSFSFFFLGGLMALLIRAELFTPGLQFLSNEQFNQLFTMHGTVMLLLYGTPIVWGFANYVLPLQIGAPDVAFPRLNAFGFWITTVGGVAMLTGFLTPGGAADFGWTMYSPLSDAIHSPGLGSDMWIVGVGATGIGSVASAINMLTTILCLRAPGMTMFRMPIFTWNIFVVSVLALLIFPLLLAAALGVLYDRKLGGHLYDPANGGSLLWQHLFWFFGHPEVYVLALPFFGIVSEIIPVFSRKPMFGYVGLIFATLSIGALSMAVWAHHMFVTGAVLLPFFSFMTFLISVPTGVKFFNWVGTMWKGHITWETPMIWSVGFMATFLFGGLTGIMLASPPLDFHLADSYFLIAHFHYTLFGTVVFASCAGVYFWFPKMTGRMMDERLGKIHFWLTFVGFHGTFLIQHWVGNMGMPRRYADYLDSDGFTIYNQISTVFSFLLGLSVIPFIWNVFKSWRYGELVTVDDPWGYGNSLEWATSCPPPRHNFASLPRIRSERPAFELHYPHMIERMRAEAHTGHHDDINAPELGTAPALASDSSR

B1: AscA (P20, PRSAF1) (natural protein, Corynebacterium glutamicum, UniProt Q8NP09 1-147, looked up)
chain: MAGSSHTIEPEIYRGVSTLDEPSAAWGWHGLKRNTIQLAGWISVLFMLGYNFGNHKGHVETIWLLVITALLVIGLLIHLFEPKLSQVRTITSRNKPVGHVEPDWTYDQATLTGTWGNLTDSQLRSVNIEPSRVAHLRAADSAKELDN
B2: QcrB, cytochrome b subunit of complex III (natural protein, Corynebacterium glutamicum, UniProt Q79VE9 1-539, looked up)
chain: MSLATVGNNLDSRYTMASGIRRQINKVFPTHWSFMLGEIALYSFIVLLLTGVYLTLFFDPSITKVIYDGGYLPLNGVEMSRAYATALDISFEVRGGLFIRQMHHWAALLFVVSMLVHMLRIFFTGAFRRPREANWIIGVVLIILGMAEGFMGYSLPDDLLSGVGLRIMSAIIVGLPIIGTWMHWLIFGGDFPSDLMLDRFYIAHVLIIPAILLGLIAAHLALVWYQKHTQFPGAGRTENNVIGIRIMPLFAVKAVAFGLIVFGFLALLAGVTTINAIWNLGPYNPSQVSAGSQPDVYMLWTDGAARVMPAWELYLGNYTIPAVFWVAVMLGILVVLLVTYPFIERKFTGDDAHHNLLQRPRDVPVRTSLGVMALVFYILLTVSGGNDVYAMQFHVSLNAMTWIGRIGLIVGPAIAYFITYRLCIGLQRSDREVLEHGIETGIIKQMPNGAFIEVHQPLGPVDDHGHPIPLPYAGAAVPKQMNQLGYAEVETRGGFFGPDPEDIRAKAKEIEHANHIEEANTLRALNEANIERDKNEGKN
B3: Complex III (cyt. bc1 complex) protomer, QcrA-QcrB-QcrC (complex, Corynebacterium glutamicum)
chain 1: MSNNNDKQYTTQELNAMSNEDLARLGTELDDVTIAYRKERFPIANDPAEKRAARAVTFWLVLGIIGGLGFLATYIFWPWEYKAHGDEGLLAYTLYTPMLGITSGLCILSLGFAVVLYVKKFIPEEIAVQRRHDGPSEEVDRRTIVALLNDSWQTSTLGRRKLIMGLAGGGAVLAGLTIIAPMGGMIKNPWNPKEGPMDVQGDGTLWTSGWTLVENDVKVYLGRDTAAIAESHTDATGEHWSTTGVSRLVRMRPEDLAAASMETVFPLPAEMVNDGAEYDPAKDVYEHQMHSVHGPRNAVMLIRLRTADAEKVIEREGQESFHYGDYYAYSKICTHIGCPTSLYEAQTNRILCPCHQSQFDALHYGKPVFGPAARALPQLPITVDEEGYLIAAGNFIEPLGPAFWERKS
chain 2: B2 chain
chain 3: MAKPSAKKVKNRRKVRRTVAGALALTIGLSGAGILATAITPDAQVATAQRDDQALISEGKDLYDVACITCHGVNLQGVEDRGPSLVGVGEGAVYFQVHSGRMPILRNEAQAERKAPRYTEAQTLAIAAYVAANGGGPGLVYNEDGTLAMEELRGENYDGQITSADVARGGDLFRLNCASCHNFTGRGGALSSGKYAPNLDAANEQEIYQAMLTGPQNMPKFSDRQLSADEKKDIIAFIKSTKETPSPGGYSLGSLGPVAEGLFMWVFGILVLVAAAMWIGSRS

The target of data set [1] is B2. The data set can be described thus: cryo-EM structure.
The target of data set [2] is T1, CtaD with Strep-tag, subunit I …. The data set can be described thus: cryo-EM structure.
Data set [3] shares this target. The data set can be described thus: affinity purification with mass spectrometry.
The data set “cryo-EM structure” concerns the molecule itself. The data set can be described thus: cryo-EM structure.

For B1, the binding result in data set [1] and in data set [2] was “binds” in each case.

Regarding B2, the binding result in data set [3] is listed as “binds”.

In the case of B3, the “stoichiometry N” value in “cryo-EM structure” was 2.
